According to publication doi:10.1101/659805:
Numbering of substitutions follows the chain as printed.

B1: Iqsec3 promoter WT probe (dsDNA)
DNA 1: CGGGAAGCAGGGTTCCTCACGAAGCCCAGAGGTGGGAGGTGG
DNA 2: CCACCTCCCACCTCTGGGCTTCGTGAGGAACCCTGCTTCCCG
B2: Iqsec3 promoter MT probe (dsDNA)
DNA 1: B1 DNA 1 with C18A, C20A, G21A
DNA 2: B1 DNA 2 with C22T, G23T, G25T

Target: T1, FLAG-Npas4 (Mus musculus (mouse), UniProt Q8BGD7 1-802)
T1 sequence: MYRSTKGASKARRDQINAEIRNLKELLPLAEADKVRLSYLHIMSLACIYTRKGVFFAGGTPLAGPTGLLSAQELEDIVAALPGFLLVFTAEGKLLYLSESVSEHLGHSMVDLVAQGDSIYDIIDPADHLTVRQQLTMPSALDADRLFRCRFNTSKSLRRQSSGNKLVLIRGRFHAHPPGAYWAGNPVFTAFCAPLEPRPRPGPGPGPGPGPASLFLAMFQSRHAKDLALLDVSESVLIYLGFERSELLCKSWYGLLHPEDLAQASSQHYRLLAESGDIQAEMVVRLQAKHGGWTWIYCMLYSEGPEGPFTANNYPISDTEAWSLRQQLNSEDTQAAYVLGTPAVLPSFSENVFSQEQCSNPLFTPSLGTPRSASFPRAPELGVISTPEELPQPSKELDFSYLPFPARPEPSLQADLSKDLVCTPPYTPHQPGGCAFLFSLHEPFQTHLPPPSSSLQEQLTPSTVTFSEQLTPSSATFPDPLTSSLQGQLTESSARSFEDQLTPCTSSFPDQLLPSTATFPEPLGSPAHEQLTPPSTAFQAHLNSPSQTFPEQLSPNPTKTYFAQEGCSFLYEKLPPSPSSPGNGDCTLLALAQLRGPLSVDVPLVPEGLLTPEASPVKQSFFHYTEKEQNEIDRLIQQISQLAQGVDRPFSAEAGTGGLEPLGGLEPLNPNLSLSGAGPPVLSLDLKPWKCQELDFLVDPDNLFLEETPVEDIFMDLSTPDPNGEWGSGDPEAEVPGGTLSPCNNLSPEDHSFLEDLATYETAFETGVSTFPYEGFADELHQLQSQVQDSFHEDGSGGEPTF
Assay: EMSA

| Binder | binding result |
| --- | --- |
| B1 | binds |
| B2 | no binding |
